Results as given in patent US8367390B2, “Galactanase variants” (Novozymes A/S, priority 2002, dated 2013).
Like-named read-outs stand apart in the source and are kept apart here.

How the values were obtained:
[1] = Degradation of MeGal3, products by HPAE-PAD; format: biochemical; conditions: for Gal2 in reaction products / Gal3 in reaction products / Gal in reaction products / MeGal2 in reaction products / MeGal3 in reaction products / MeGal in reaction products: MeGal3 0.25 mg/ml, pH 6.5, 37° C.
Procedure: (§1) The activity on the galacto-oligosaccharide substrates prepared as described above and on the commercially available galactobiose (Gal2, Megazyme) was studied for the four purified galactanases HIGAL, MTGAL, AAGAL and BLGAL. The buffers and temperatures used were: 25 mM sodium acetate, 0.5 mM CaCl2, 0.005% Triton X-100, pH 6.5 at 37° C. for HIGAL and MTGAL, 50 mM sodium acetate, 1 mM CaCl2, pH 4 at 30° C. for AAGAL and 50 mM Mes, 1 mM CaCl2, pH 6.5 at 30° C. for BLGAL. Enzyme concentrations used were 0.8 μg/ml for HIGAL, 0.2 microgram/ml for MTGAL, and 10 micrograms/ml for AAGAL and BLGAL. With HIGAL and MTGAL substrate concentrations were all 0.25 mg/ml, whereas 0.34 mg/ml Gal2, 0.050 mg/ml Gal3 and 0.067 mg/ml Gal4 were used for AAGAL and BLGAL. Enzyme activity in samples withdrawn after various incubation times was inactivated by heating to 95° C. for 10 min. Compositions of reaction products were analysed using HPAE-PAD (Dionex) applying a PA-100 column and a linear gradient of sodium acetate (0-0.18 M) in 0.15 M NaOH. Response factors of the individual carbohydrates were estimated from reference runs with MeGal3, MeGal4, Gal, Gal2, Gal3 and Gal4. Selected results are shown in Tables 2-8 below (the figures indicating weight percentage of glactooligosaccharides).

[2] = format: biochemical; conditions: for Gal2 in reaction products / Gal3 in reaction products / Gal4 in reaction products / Gal in reaction products: Gal4 0.25 mg/ml, pH 6.5, 37° C.
Procedure: as §1

[3] = Degradation of MeGal4, products by HPAE-PAD; format: biochemical; conditions: for Gal2 in reaction products / Gal3 in reaction products / Gal4 in reaction products / Gal in reaction products / MeGal2 in reaction products / MeGal3 in reaction products / MeGal4 in reaction products / MeGal in reaction products: MeGal4 0.25 mg/ml, pH 6.5, 37° C.
Procedure: as §1

[4] = Activity on galactobiose (Gal2); format: biochemical; conditions: in 24 hours; buffer, pH and temperature per enzyme
Procedure: as §1

[5] = Activity on galactotriose (Gal3); format: biochemical; conditions: up to 24 hours; buffer, pH and temperature per enzyme
Procedure: as §1

B1: HIGAL: GH Family 53 galactanase from Humicola insolens, SEQ ID NO: 2 (wild type parent) (protein, listed as Humicola insolens)
chain: ALQYKGVDWSSVMVEERAGVRYKNVNGQEKPLEYILAENGVNMVRQRVWVNPWDGNYNLDYNIQLARRAKAAGLGLYINFHYSDTWADPAHQTTPAGWPSDINNLAWKLYNYTLDSMNRFADAGIQVDIVSIGNEITQGLLWPLGKTNNWYNIARLLHSAAWGVKDSRLNPKPKIMVHLDNGWNWDTQNWWYTNVLSQGPFEMSDFDMMGVSFYPFYSASATLDSLRRSLNNMVSRWGKEVAVVETNWPTSCPYPRYQFPADVRNVPFSAAGQTQYIQSVANVVSSVSKGVGLFYWEPAWIHNANLGSSCADNTMFTPSGQALSSLSVFHRI
modifications: mat_peptide (1)..()
Gal2 in reaction products ([1]; incubation time 0.0 hours): 0.0 weight percentage | Gal3 in reaction products ([1]; incubation time 0.0 hours): 0.0 weight percentage | Gal in reaction products ([1]; incubation time 0.0 hours): 0.0 weight percentage | MeGal2 in reaction products ([1]; incubation time 0.0 hours): 0.0 weight percentage | MeGal3 in reaction products ([1]; incubation time 0.0 hours): 100.0 weight percentage | MeGal in reaction products ([1]; incubation time 0.0 hours): 0.0 weight percentage | Gal2 in reaction products ([1]; incubation time 0.5 hours): 3.9 weight percentage | Gal3 in reaction products ([1]; incubation time 0.5 hours): 1.2 weight percentage | Gal in reaction products ([1]; incubation time 0.5 hours): 0.0 weight percentage | MeGal2 in reaction products ([1]; incubation time 0.5 hours): 3.3 weight percentage | MeGal3 in reaction products ([1]; incubation time 0.5 hours): 80.3 weight percentage | MeGal in reaction products ([1]; incubation time 0.5 hours): 11.4 weight percentage | Gal2 in reaction products ([1]; incubation time 2.2 hours): 12.5 weight percentage | Gal3 in reaction products ([1]; incubation time 2.2 hours): 3.3 weight percentage | Gal in reaction products ([1]; incubation time 2.2 hours): 2.3 weight percentage | MeGal2 in reaction products ([1]; incubation time 2.2 hours): 3.7 weight percentage | MeGal3 in reaction products ([1]; incubation time 2.2 hours): 59.7 weight percentage | MeGal in reaction products ([1]; incubation time 2.2 hours): 18.4 weight percentage | Gal2 in reaction products ([1]; incubation time 5.0 hours): 20.2 weight percentage | Gal3 in reaction products ([1]; incubation time 5.0 hours): 10.6 weight percentage | Gal in reaction products ([1]; incubation time 5.0 hours): 3.0 weight percentage | MeGal2 in reaction products ([1]; incubation time 5.0 hours): 5.2 weight percentage | MeGal3 in reaction products ([1]; incubation time 5.0 hours): 24.2 weight percentage | MeGal in reaction products ([1]; incubation time 5.0 hours): 36.8 weight percentage | Gal2 in reaction products ([1]; incubation time 72.0 hours): 36.2 weight percentage | Gal3 in reaction products ([1]; incubation time 72.0 hours): 8.0 weight percentage | Gal in reaction products ([1]; incubation time 72.0 hours): 17.1 weight percentage | MeGal2 in reaction products ([1]; incubation time 72.0 hours): 4.2 weight percentage | MeGal3 in reaction products ([1]; incubation time 72.0 hours): 0.0 weight percentage | MeGal in reaction products ([1]; incubation time 72.0 hours): 34.6 weight percentage | Release of MeGal versus MeGal2 from MeGal3 ([1]; in words): much higher release of MeGal than MeGal2 | Products of Gal4 (galactotetraose) degradation [2]: mainly to Gal and Gal2, whereas Gal3 did not accumulate | Gal2 in reaction products ([2]; incubation time 0.0 hours): 0.0 weight percentage | Gal3 in reaction products ([2]; incubation time 0.0 hours): 42.0 weight percentage | Gal4 in reaction products ([2]; incubation time 0.0 hours): 58.0 weight percentage | Gal in reaction products ([2]; incubation time 0.0 hours): 0.0 weight percentage | Gal2 in reaction products ([2]; incubation time 0.5 hours): 8.1 weight percentage | Gal3 in reaction products ([2]; incubation time 0.5 hours): 43.2 weight percentage | Gal4 in reaction products ([2]; incubation time 0.5 hours): 42.9 weight percentage | Gal in reaction products ([2]; incubation time 0.5 hours): 5.8 weight percentage | Gal2 in reaction products ([2]; incubation time 2.2 hours): 21.9 weight percentage | Gal3 in reaction products ([2]; incubation time 2.2 hours): 39.8 weight percentage | Gal4 in reaction products ([2]; incubation time 2.2 hours): 21.6 weight percentage | Gal in reaction products ([2]; incubation time 2.2 hours): 16.7 weight percentage | Gal2 in reaction products ([2]; incubation time 5.0 hours): 34.8 weight percentage | Gal3 in reaction products ([2]; incubation time 5.0 hours): 23.9 weight percentage | Gal4 in reaction products ([2]; incubation time 5.0 hours): 5.7 weight percentage | Gal in reaction products ([2]; incubation time 5.0 hours): 35.6 weight percentage | Gal2 in reaction products ([2]; incubation time 72.0 hours): 33.6 weight percentage | Gal3 in reaction products ([2]; incubation time 72.0 hours): 0.9 weight percentage | Gal4 in reaction products ([2]; incubation time 72.0 hours): 0.2 weight percentage | Gal in reaction products ([2]; incubation time 72.0 hours): 65.2 weight percentage | Gal2 in reaction products ([3]; incubation time 0.0 hours): 0.0 weight percentage | Gal3 in reaction products ([3]; incubation time 0.0 hours): 0.0 weight percentage | Gal4 in reaction products ([3]; incubation time 0.0 hours): 0.0 weight percentage | Gal in reaction products ([3]; incubation time 0.0 hours): 0.0 weight percentage | MeGal2 in reaction products ([3]; incubation time 0.0 hours): 4.7 weight percentage | MeGal3 in reaction products ([3]; incubation time 0.0 hours): 14.8 weight percentage | MeGal4 in reaction products ([3]; incubation time 0.0 hours): 79.0 weight percentage | MeGal in reaction products ([3]; incubation time 0.0 hours): 1.6 weight percentage | Gal2 in reaction products ([3]; incubation time 0.5 hours): 6.3 weight percentage | Gal3 in reaction products ([3]; incubation time 0.5 hours): 20.6 weight percentage | Gal4 in reaction products ([3]; incubation time 0.5 hours): 3.3 weight percentage | Gal in reaction products ([3]; incubation time 0.5 hours): 2.3 weight percentage | MeGal2 in reaction products ([3]; incubation time 0.5 hours): 12.6 weight percentage | MeGal3 in reaction products ([3]; incubation time 0.5 hours): 17.2 weight percentage | MeGal4 in reaction products ([3]; incubation time 0.5 hours): 25.5 weight percentage | MeGal in reaction products ([3]; incubation time 0.5 hours): 12.1 weight percentage | Gal2 in reaction products ([3]; incubation time 2.0 hours): 5.0 weight percentage | Gal3 in reaction products ([3]; incubation time 2.0 hours): 16.0 weight percentage | Gal4 in reaction products ([3]; incubation time 2.0 hours): 3.2 weight percentage | Gal in reaction products ([3]; incubation time 2.0 hours): 1.6 weight percentage | MeGal2 in reaction products ([3]; incubation time 2.0 hours): 13.2 weight percentage | MeGal3 in reaction products ([3]; incubation time 2.0 hours): 18.4 weight percentage | MeGal4 in reaction products ([3]; incubation time 2.0 hours): 32.1 weight percentage | MeGal in reaction products ([3]; incubation time 2.0 hours): 10.5 weight percentage | Gal2 in reaction products ([3]; incubation time 5.0 hours): 13.8 weight percentage | Gal3 in reaction products ([3]; incubation time 5.0 hours): 19.7 weight percentage | Gal4 in reaction products ([3]; incubation time 5.0 hours): 3.2 weight percentage | Gal in reaction products ([3]; incubation time 5.0 hours): 7.4 weight percentage | MeGal2 in reaction products ([3]; incubation time 5.0 hours): 16.1 weight percentage | MeGal3 in reaction products ([3]; incubation time 5.0 hours): 15.5 weight percentage | MeGal4 in reaction products ([3]; incubation time 5.0 hours): 7.6 weight percentage | MeGal in reaction products ([3]; incubation time 5.0 hours): 16.6 weight percentage | Gal2 in reaction products ([3]; incubation time 24.0 hours): 25.3 weight percentage | Gal3 in reaction products ([3]; incubation time 24.0 hours): 9.1 weight percentage | Gal4 in reaction products ([3]; incubation time 24.0 hours): 1.7 weight percentage | Gal in reaction products ([3]; incubation time 24.0 hours): 26.4 weight percentage | MeGal2 in reaction products ([3]; incubation time 24.0 hours): 13.4 weight percentage | MeGal3 in reaction products ([3]; incubation time 24.0 hours): 5.0 weight percentage | MeGal4 in reaction products ([3]; incubation time 24.0 hours): 0.0 weight percentage | MeGal in reaction products ([3]; incubation time 24.0 hours): 19.1 weight percentage | Products from MeGal4 ([3]; in words, buffer, pH and temperature per enzyme): initial release mainly of MeGal, MeGal2 and Gal3 and some Gal2 but little Gal | Activity on Gal2 [4]: Neither of the enzymes HIGAL, MTGAL, AAGAL or BLGAL had any detectable activity | Activity on Gal3, products [5]: degraded Gal3 to Gal2 and Gal
